Measurements taken from US6787341B2, “Pharmacological targeting of bacterial DNA ligase for treatment and prevention of bacterial infections” (priority 2001, dated 2004).

B1: Y22F: E. coli LigA with Tyr22 replaced by Phe (protein, UniProt P15042 1-671, looked up, variant Y22F)
DNA ligase: MESIEQQLTELRTTLRHHEYLFHVMDAPEIPDAEYDRLMRELRELETKHPELITPDSPTQRVGAAPLAAFSQIRHEVPMLSLDNVFDEESFLAFNKRVQDRLKNNEKVTWCCELKLDGLAVSILYENGVLVSAATRGDGTTGEDITSNVRTIRAIPLKLHGENIPARLEVRGEVFLPQAGFEKINEDARRTGGKVFANPRNAAAGSLRQLDPRITAKRPLTFFCYGVGVLEGGELPDTHLGRLLQFKKWGLPVSDRVTLCESAEEVLAFYHKVEEDRPTLGFDIDGVVIKVNSLAQQEQLGFVARAPRWAVAFKFPAQEQMTFVRDVEFQVGRTGAITPVARLEPVHVAGVLVSNATLHNADEIERLGLRIGDKVVIRRAGDVIPQVVNVVLSERPEDTREVVFPTHCPVCGSDVERVEGEAVARCTGGLICGAQRKESLKHFVSRRAMDVDGMGDKIIDQLVEKEYVHTPADLFKLTAGKLTGLERMGPKSAQNVVNALEKAKETTFARFLYALGIREVGEATAAGLAAYFGTLEALEAASIEELQKVPDVGIVVASHVHNFFAEESNRNVISELLAEGVHWPAPIVINAEEIDSPFAGKTVVLTGSLSQMSRDDAKARLVELGAKVAGSVSKKTDLVIAGEAAGSKLAKAQELGIEVIDEAEMLRLLGS
B2: H23Y: E. coli LigA with His23 changed to Tyr (protein, UniProt P15042 1-671, looked up, variant H23Y)
DNA ligase: MESIEQQLTELRTTLRHHEYLYYVMDAPEIPDAEYDRLMRELRELETKHPELITPDSPTQRVGAAPLAAFSQIRHEVPMLSLDNVFDEESFLAFNKRVQDRLKNNEKVTWCCELKLDGLAVSILYENGVLVSAATRGDGTTGEDITSNVRTIRAIPLKLHGENIPARLEVRGEVFLPQAGFEKINEDARRTGGKVFANPRNAAAGSLRQLDPRITAKRPLTFFCYGVGVLEGGELPDTHLGRLLQFKKWGLPVSDRVTLCESAEEVLAFYHKVEEDRPTLGFDIDGVVIKVNSLAQQEQLGFVARAPRWAVAFKFPAQEQMTFVRDVEFQVGRTGAITPVARLEPVHVAGVLVSNATLHNADEIERLGLRIGDKVVIRRAGDVIPQVVNVVLSERPEDTREVVFPTHCPVCGSDVERVEGEAVARCTGGLICGAQRKESLKHFVSRRAMDVDGMGDKIIDQLVEKEYVHTPADLFKLTAGKLTGLERMGPKSAQNVVNALEKAKETTFARFLYALGIREVGEATAAGLAAYFGTLEALEAASIEELQKVPDVGIVVASHVHNFFAEESNRNVISELLAEGVHWPAPIVINAEEIDSPFAGKTVVLTGSLSQMSRDDAKARLVELGAKVAGSVSKKTDLVIAGEAAGSKLAKAQELGIEVIDEAEMLRLLGS
B3: Y22S: E. coli LigA with Tyr22 replaced by Ser (protein, UniProt P15042 1-671, looked up, variant Y22S)
DNA ligase: MESIEQQLTELRTTLRHHEYLSHVMDAPEIPDAEYDRLMRELRELETKHPELITPDSPTQRVGAAPLAAFSQIRHEVPMLSLDNVFDEESFLAFNKRVQDRLKNNEKVTWCCELKLDGLAVSILYENGVLVSAATRGDGTTGEDITSNVRTIRAIPLKLHGENIPARLEVRGEVFLPQAGFEKINEDARRTGGKVFANPRNAAAGSLRQLDPRITAKRPLTFFCYGVGVLEGGELPDTHLGRLLQFKKWGLPVSDRVTLCESAEEVLAFYHKVEEDRPTLGFDIDGVVIKVNSLAQQEQLGFVARAPRWAVAFKFPAQEQMTFVRDVEFQVGRTGAITPVARLEPVHVAGVLVSNATLHNADEIERLGLRIGDKVVIRRAGDVIPQVVNVVLSERPEDTREVVFPTHCPVCGSDVERVEGEAVARCTGGLICGAQRKESLKHFVSRRAMDVDGMGDKIIDQLVEKEYVHTPADLFKLTAGKLTGLERMGPKSAQNVVNALEKAKETTFARFLYALGIREVGEATAAGLAAYFGTLEALEAASIEELQKVPDVGIVVASHVHNFFAEESNRNVISELLAEGVHWPAPIVINAEEIDSPFAGKTVVLTGSLSQMSRDDAKARLVELGAKVAGSVSKKTDLVIAGEAAGSKLAKAQELGIEVIDEAEMLRLLGS
B4: Y35S: E. coli LigA with Tyr35 replaced by Ser (protein, UniProt P15042 1-671, looked up, variant Y35S)
DNA ligase: MESIEQQLTELRTTLRHHEYLYHVMDAPEIPDAESDRLMRELRELETKHPELITPDSPTQRVGAAPLAAFSQIRHEVPMLSLDNVFDEESFLAFNKRVQDRLKNNEKVTWCCELKLDGLAVSILYENGVLVSAATRGDGTTGEDITSNVRTIRAIPLKLHGENIPARLEVRGEVFLPQAGFEKINEDARRTGGKVFANPRNAAAGSLRQLDPRITAKRPLTFFCYGVGVLEGGELPDTHLGRLLQFKKWGLPVSDRVTLCESAEEVLAFYHKVEEDRPTLGFDIDGVVIKVNSLAQQEQLGFVARAPRWAVAFKFPAQEQMTFVRDVEFQVGRTGAITPVARLEPVHVAGVLVSNATLHNADEIERLGLRIGDKVVIRRAGDVIPQVVNVVLSERPEDTREVVFPTHCPVCGSDVERVEGEAVARCTGGLICGAQRKESLKHFVSRRAMDVDGMGDKIIDQLVEKEYVHTPADLFKLTAGKLTGLERMGPKSAQNVVNALEKAKETTFARFLYALGIREVGEATAAGLAAYFGTLEALEAASIEELQKVPDVGIVVASHVHNFFAEESNRNVISELLAEGVHWPAPIVINAEEIDSPFAGKTVVLTGSLSQMSRDDAKARLVELGAKVAGSVSKKTDLVIAGEAAGSKLAKAQELGIEVIDEAEMLRLLGS
B5: Y35F: E. coli LigA with Tyr35 replaced by Phe (protein, UniProt P15042 1-671, looked up, variant Y35F)
DNA ligase: MESIEQQLTELRTTLRHHEYLYHVMDAPEIPDAEFDRLMRELRELETKHPELITPDSPTQRVGAAPLAAFSQIRHEVPMLSLDNVFDEESFLAFNKRVQDRLKNNEKVTWCCELKLDGLAVSILYENGVLVSAATRGDGTTGEDITSNVRTIRAIPLKLHGENIPARLEVRGEVFLPQAGFEKINEDARRTGGKVFANPRNAAAGSLRQLDPRITAKRPLTFFCYGVGVLEGGELPDTHLGRLLQFKKWGLPVSDRVTLCESAEEVLAFYHKVEEDRPTLGFDIDGVVIKVNSLAQQEQLGFVARAPRWAVAFKFPAQEQMTFVRDVEFQVGRTGAITPVARLEPVHVAGVLVSNATLHNADEIERLGLRIGDKVVIRRAGDVIPQVVNVVLSERPEDTREVVFPTHCPVCGSDVERVEGEAVARCTGGLICGAQRKESLKHFVSRRAMDVDGMGDKIIDQLVEKEYVHTPADLFKLTAGKLTGLERMGPKSAQNVVNALEKAKETTFARFLYALGIREVGEATAAGLAAYFGTLEALEAASIEELQKVPDVGIVVASHVHNFFAEESNRNVISELLAEGVHWPAPIVINAEEIDSPFAGKTVVLTGSLSQMSRDDAKARLVELGAKVAGSVSKKTDLVIAGEAAGSKLAKAQELGIEVIDEAEMLRLLGS

Legend:
E. coli LigA [1] = type: biochemical; conditions: specific activity by protein titration under steady-state conditions, normalized to wild-type ligase
Method: (§1) FIG. 12A: Aliquots (5 μg) of wild-type (WT) E. coli ligase, N-terminal deletion mutants NΔ38 and NΔ78, and the full-length ligase proteins containing the indicated alanine mutations in domain Ia were analyzed by SDS-PAGE. A Coomassie blue-stained gel is shown. FIG. 12B: Ligase adenylation reaction mixtures (20 μl) containing 50 mM Tris-HCl (pH 7.5), 5 mM DTT, 5 mM MgCl2, 1 μM [α-^32P]NAD^+ and 8 pmol of WT ligase, NΔ38, NΔ78, or the indicated alanine mutants were incubated for 5 min at 37° C. The reaction products were resolved by SDS-PAGE and visualized by autoradiography. FIG. 12C: Nick joining reaction mixtures (20 μl) containing 50 mM Tris-HCl (pH 7.5), 10 mM (NH4)2SO4, 5 mM DTT, 5 mM MgCl2, 20 μM NAD^+, 1 pmol of ^32P-labeled nicked DNA, and increasing amounts of WT ligase or the indicated alanine mutants were incubated for 10 min at 22° C. The extents of ligation are plotted as a function of input protein.
To further probe the role of domain Ia in NAD^+ recognition and nucleotidyl transfer, single alanine substitutions were introduced at six positions in the Ia domain of E. coli LigA. The six mutated Eco ligase residues—Glu10, Tyr22, His23, Asp32, Tyr35, and Asp36—correspond to the six residues that were subjected to alanine scanning mutagenesis in AmEPV ligase (FIG. 11). […] The conserved positions are denoted by shaded boxes in FIG. 11. The Eco ligase mutants E10A, Y22A, H23A, D32A, Y35A, and D36A were produced in E. coli and purified by Ni-agarose chromatography in parallel with wild-type ligase (FIG. 12A).
To evaluate the roles of charge, hydrogen bonding potential, and steric constraints in the functions of the domain Ia residues implicated in the step 1 reaction with NAD^+, the effects of conservative substitutions were tested. Tyr22 and Tyr35 were replaced by Phe and Ser, His23 was changed to Tyr, and Asp32 and Asp36 were mutated to Glu and Asn. The recombinant mutant ligases were purified from soluble bacterial extracts by Ni-agarose chromatography (FIG. 15A). The specific activity of each mutant was determined under steady-state conditions by protein titration and normalized to the specific activity of wild-type ligase.

E. coli LigA [2] = type: biochemical; conditions: for rate of ligase adenylation (kinetic pattern): 1 μM [32P-AMP]NAD+, 15-120 s; for ligase adenylation (ligase-AMP formation) with NAD+: qualitative
Method: as §1
FIG. 15A: Aliquots (5 μg) of wild-type (WT) E. coli ligase and proteins containing the indicated mutations in domain Ia were analyzed by SDS-PAGE. The Coomassie blue-stained gel is shown. The positions and sizes (in kDa) of marker proteins are indicated on the left. FIG. 15B: Ligase adenylation reaction mixtures (20 μl) containing 50 mM Tris-HCl (pH 7.5), 5 mM DTT, 5 mM MgCl2, 1 μM [α-^32P]NAD^+ and 8 pmol of WT ligase or the indicated mutants were incubated for 5 min at 37° C. The reaction products were resolved by SDS-PAGE and visualized by autoradiography.
Reaction mixtures containing (per 20 μl) 50 mM Tris-HCl (pH 7.5), 5 mM DTT, 5 mM MgCl2, 1 μM [^32P-AMP]NAD^+ and 8 pmol of ligase were incubated at 22° C. Aliquots (20 μl) were withdrawn at 15, 30, 60 and 120 s and then quenched immediately with SDS. The products were analyzed by SDS-PAGE. Formation of the ligase-[^32P]AMP adduct is plotted as a function of time.
The first step in DNA ligation involves formation of a covalent enzyme-adenylate intermediate.

Molecule | Nick Joining Activity (% of WT) (E. coli LigA [1]) | rate of ligase adenylation (kinetic pattern) (E. coli LigA [2]) | ligase adenylation (ligase-AMP formation) with NAD+ (E. coli LigA [2])
B1 | 9 % of WT | reacted slowly | weakly active
B2 | 88 % of WT | – | restored the yield of ligase-AMP adduct to the wild-type level
B3 | 0.2 % of WT | – | virtually inert
B4 | <0.1 % of WT | – | apparently unreactive
B5 | 23 % of WT | faster than Y35A | restored adenylation activity
